Laboratory results from paper PMC3770571.

Tests used:
[1] = biological target: endogenous LANA of KSHV infected PEL cells (KSHV (HHV8) (endogenous in BCBL1, JSC1, BC3)) (UniProt Q9QR71); test: co-IP; lysate of 30 million BCBL1 cells treated with 2 U micrococcal nuclease (mononucleosomes), anti-LANA IP
[2] = biological target: endogenous LANA of KSHV infected PEL cells (KSHV (HHV8) (endogenous in BCBL1, JSC1, BC3)) (UniProt Q9QR71); test: co-IP

Sequence of UniProt Q9QR71 (Q9QR71 whole entry): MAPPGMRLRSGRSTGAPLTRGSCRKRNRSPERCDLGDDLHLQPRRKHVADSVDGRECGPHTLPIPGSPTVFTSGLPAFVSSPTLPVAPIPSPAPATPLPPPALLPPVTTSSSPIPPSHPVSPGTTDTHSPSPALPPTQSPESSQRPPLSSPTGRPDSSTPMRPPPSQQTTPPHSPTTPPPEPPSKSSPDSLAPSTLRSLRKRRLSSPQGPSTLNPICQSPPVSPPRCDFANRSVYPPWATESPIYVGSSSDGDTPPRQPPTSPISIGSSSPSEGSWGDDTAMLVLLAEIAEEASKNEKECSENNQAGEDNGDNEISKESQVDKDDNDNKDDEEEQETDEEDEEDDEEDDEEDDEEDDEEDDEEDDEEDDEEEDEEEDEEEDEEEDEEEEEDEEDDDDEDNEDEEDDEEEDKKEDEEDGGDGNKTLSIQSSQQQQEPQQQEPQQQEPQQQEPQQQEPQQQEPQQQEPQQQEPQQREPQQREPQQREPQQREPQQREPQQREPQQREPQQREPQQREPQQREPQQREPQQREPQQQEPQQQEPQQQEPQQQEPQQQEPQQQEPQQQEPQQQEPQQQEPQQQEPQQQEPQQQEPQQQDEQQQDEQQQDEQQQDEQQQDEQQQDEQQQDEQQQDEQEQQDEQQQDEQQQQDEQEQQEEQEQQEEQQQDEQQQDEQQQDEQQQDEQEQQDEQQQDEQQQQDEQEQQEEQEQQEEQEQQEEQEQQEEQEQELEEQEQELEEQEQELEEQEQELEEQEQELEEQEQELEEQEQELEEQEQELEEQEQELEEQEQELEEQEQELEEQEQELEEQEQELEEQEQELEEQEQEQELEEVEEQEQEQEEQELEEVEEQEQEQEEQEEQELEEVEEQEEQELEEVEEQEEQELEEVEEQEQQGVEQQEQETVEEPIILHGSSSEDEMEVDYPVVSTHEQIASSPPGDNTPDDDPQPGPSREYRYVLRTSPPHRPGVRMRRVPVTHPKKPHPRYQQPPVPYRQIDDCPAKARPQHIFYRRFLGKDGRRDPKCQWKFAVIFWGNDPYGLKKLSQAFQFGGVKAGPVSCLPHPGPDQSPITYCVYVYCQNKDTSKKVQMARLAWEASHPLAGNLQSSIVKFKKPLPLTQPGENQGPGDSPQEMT

Question: “endogenous histone H1 of human cells (from UniProt P16403 1-213) (natural protein)” was tested. Which relative density of the co-precipitated band (input set at 10%) [1] did it give?
Answer: 10%

Question: And the relative density of the co-precipitated band (input set at 10%) [2]?
Answer: 30%
